Reference: publication PMC4856805

Experiments:
Test in all cases: SPR
[1] = target: MEDI4212 2M2 (S239D/I332E) (human)
[2] = target: MEDI4212 3M (S239D/A330L/I332E) (human)
MEDI4212 aFuc (human) = target: MEDI4212 aFuc (human)
[3] = target: MEDI4212 wild-type (WT) monoclonal antibody (human)

Row | Substance | Kd [1] | Kd [2] | Kd (MEDI4212 aFuc (human)) | Kd [3]
1 | Flag-tagged hFcγRIIIa (158F) (from UniProt P08637 17-254) (receptor) | 67 nM | 36 nM | 389 nM | 4960 nM
2 | Flag-tagged hFcγRIIIa (158V) (receptor) | 7 nM | 7 nM | 50 nM | 502 nM
